Data on 16 molecules can be found in paper PMC4690531 (Cell, 2010).

For series [1], the target named is coexpressed MLL1 PHD3-Bromo cassette (residues 1566–1784, with deletion of 1666–1702 ZA loop segment) (human) (UniProt Q03164). The series is described as follows: ITC.
For series [2], the target named is complex of MLL1 PHD3-Bromo cassette and full-length CyP33 (UniProt Q03164). Kind of series: ITC. Background: Isothermal titration calorimetry measures the heat released or taken up as one component is titrated into another.
The target of series [3] is T1, MLL1 PHD3-Bromo cassette (Homo sapiens, UniProt Q03164, DEL1666-1702). The series is described as follows: Gel filtration complex formation with MLL1 PHD3-Bromo cassette. The class given is binding. The conditions noted are these: for binding of CyP33 mutants to PHD3-Bromo: in vitro, Figure 4, lines 7 and 11. For orientation: Size exclusion chromatography separates by hydrodynamic size, large species first.

Series [4] relates to HOXA9 expression in 293T cells. The series is described as follows: HOXA9 expression in transfected 293T cells. The conditions noted are these: overexpression, real-time PCR, empty vector control. Format: cell-based. A general note: Real-time PCR tracks product formation cycle by cycle.
In series [5] the test system is HOXA9. Kind of series: Anti-HA ChIP of CyP33 binding at HOXA9. The class given is cell-based. The conditions noted are these: 293T cells, typical for at least three independent experiments.
Series [6] deals with HOXC8 expression in 293T cells. The series is described as follows: HOXC8 expression in transfected 293T cells. The class given is cell-based. The conditions noted are these: overexpression, real-time PCR, empty vector control.
In series [7] the test system is H3 acetylation at HOXA9. Kind of series: ChIP with anti-H3 pan acetyl. The class given is cell-based. The following applies: 293T cells, overexpression, anti-H3 pan acetyl (AcH3), typical for at least three independent experiments.
In series [8] the test system is HOXC8. The series is described as follows: Anti-HA ChIP of CyP33 binding at HOXC8. The class given is cell-based. The conditions noted are these: 293T cells, typical for at least three independent experiments.
In series [9] the test system is MLL1 Bromo alone (1639–1784). Kind of series: 1H,15N-HSQC titration of MLL1 Bromo alone with acetyllysine peptides. Format: binding. The following applies: five equivalents of H4(7-17)K12ac or H4(14-19)K16ac, H3K23ac and H3K27ac data not shown.
Series [10] deals with MLL1 PHD3-Bromo cassette (1566–1784). The series is described as follows: 1H,15N-HSQC titration of MLL1 PHD3-Bromo cassette with acetyllysine peptides. The following applies: five equivalents of H4(7-17)K12ac or H4(14-19)K16ac, H3K23ac and H3K27ac data not shown. Format: binding.
Series [11] concerns the target T1, MLL1 PHD3-Bromo cassette. Kind of series: ITC binding of H3K4me peptides to coexpressed MLL1 PHD3-Bromo cassette. The conditions noted are these: vs H3K4me3 peptide without added Ala.
The test system of series [12] is H3 acetylation at HOXC8. The series is described as follows: ChIP with anti-H3 pan acetyl. Format: cell-based. The following applies: 293T cells, overexpression, anti-H3 pan acetyl (AcH3), typical for at least three independent experiments.
Series [13] concerns HOXC8 locus in K562 cells. The following applies: ref Fair et al., 2001; cited from earlier work.
For series [14], the system named is MLL1 PHD3 domain alone. The series is described as follows: Gel filtration complex formation with MLL1 PHD3 alone. The class given is binding.
Series [15] deals with MLL1 (1566–1639). The series is described as follows: NMR monitoring of Pro1629 cis-to-trans transition. The class given is binding. The following applies: 1H,13C-HSQC.
In series [16] the test system is MLL1 PHD3. The series is described as follows: 1H,15N-HSQC Trp1594 indole resonance on sequential addition. The class given is binding. The conditions noted are these: H3K4me3 first (binary complex), then CyP33 RRM (ternary complex).
Series [17] concerns MLL1 PHD3 M1606D mutant. Kind of series: Complex formation with MLL1 PHD3 M1606D. The class given is binding. The following applies: Figure 4, line 10.
The subject of series [18] is MLL2 PHD3. The series is described as follows: Gel filtration complex formation with MLL2 PHD3. Format: binding.
Series [19] concerns AU-rich RNAs. The conditions noted are these: ref Mi et al., 1996; Wang et al., 2008; cited from earlier work.
For series [20], the system named is MLL2 PHD3 D1375M mutant. Kind of series: Complex formation with MLL2 PHD3 D1375M. The following applies: Figure 4, line 13. Format: binding.
Series [21] has as its system MLL1 PHD3-Bromo mutant, where Pro1629 was replaced by Ala. The series is described as follows: Complex formation with MLL1 PHD3-Bromo Pro1629 to Ala mutant. Format: binding. The following applies: in the absence of CyP33 PPIase domain.
The target of series [22] is MLL1 PHD3-Bromo Y1581A mutant (human, UniProt Q03164 1566-1665; Q03164 1703-1784, Y1581A). Kind of series: ITC.
In series [23] the target is MLL1 PHD3-Bromo Q1587A mutant (human, UniProt Q03164 1566-1665; Q03164 1703-1784, Q1587A). Kind of series: ITC.
Series [24] addresses T2, CyP33 RRM (1–82) (UniProt Q9UNP9 1-82).
T2 sequence (looked up): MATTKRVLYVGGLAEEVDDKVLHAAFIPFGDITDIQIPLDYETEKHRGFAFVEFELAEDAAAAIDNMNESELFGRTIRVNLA
The series is described as follows: NMR titration.

Series [25] has as its target T3, CyP33 RRM (2–82) (UniProt Q9UNP9 2-82).
T3 sequence (looked up): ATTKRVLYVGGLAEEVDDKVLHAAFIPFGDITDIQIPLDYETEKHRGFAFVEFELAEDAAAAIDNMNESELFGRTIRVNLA
The series is described as follows: NMR structure.

Entries after “also recorded” stand apart in the source; their conditions may differ. No end group written: not given here.

The Kd is the free concentration of one partner at which half of the binding sites on the other are occupied at equilibrium, for simple one-to-one binding. As to “H3(1-15)K4me3 peptide (from UniProt P68431 2-16)”, the Kd came out at 4.3 µM in series [1] and 11.6 µM in series [2].

Take “F196E/M197E: CyP33 with F196E/M197E double mutation in the PPIase domain”: the “binding of CyP33 mutants to PHD3-Bromo” value in [3] is “reduced the binding between CyP33 and PHD3-Bromo”. In addition, the “HOXA9 repression” value in series [4] is recorded as “did not cause any repression of either HOX gene; also recorded: not in cells expressing the F51D (green bars)or F196E/M197E”. Also, the “CyP33 binding to HOXA9” value in series [5] was “bound to HOXA9 and HOXC8”. In addition, the “HOXC8 repression” value in series [6] was “did not cause any repression of either HOX gene; also recorded: not in cells expressing the F51D (green bars)or F196E/M197E”. For the same molecule, the “H3 acetylation at HOXA9” value in [7] is “not in cells expressing the F51D (green bars) and F196E/M197E”. In [8], the “CyP33 binding to HOXC8” value was “bound to HOXA9 and HOXC8”.

As to “H4(14-19)K16ac: acetylated histone H4 peptide”, the “complexation shifts, Bromo alone” value in series [9] was “did not observe any complexation shifts”. Also, the “complexation shifts, PHD3-Bromo cassette” value in series [10] is listed as “did not observe any complexation shifts”.

On to `C[C@H](N)C(=O)N[C@@H](C)C(=O)N[C@@H](CCCNC(=N)N)C(=O)N[C@H](C(=O)N[C@@H](CCCC[N+](C)(C)C)C(=O)N[C@@H](CCC(N)=O)C(=O)N[C@H](C(=O)N[C@@H](C)C(=O)N[C@@H](CCCNC(=N)N)C(=O)N[C@@H](CCCCN)C(=O)N[C@@H](CO)C(=O)N[C@H](C(=O)NCC(=O)NCC(=O)N[C@@H](CCCCN)C(=O)N[C@@H](C)C(=O)O)[C@@H](C)O)[C@@H](C)O)[C@@H](C)O` [single Ala], for which the “increase of dissociation constant on N-terminal extension” value in series [11] is on record as 6 fold.

For the molecule “F51D: CyP33 with F51D mutation in the RRM domain”, the “binding of CyP33 mutants to PHD3-Bromo” value in series [3] was “sufficient to abolish the binding between CyP33 and MLL1 PHD3-Bromo”. In addition, in [4], the “HOXA9 repression” value is “did not cause any repression of either HOX gene; also recorded: not in cells expressing the F51D; also recorded: unable to deacetylate and repress target genes”. Moreover, the “H3 acetylation at HOXC8” value in [12] was “unable to deacetylate”. In addition, the “CyP33 binding to HOXA9” value in series [5] was “variably reduced CyP33 binding; also recorded: only partially disrupted in its ability to bind to HOXA9 and HOXC8”. Besides, the “HOXC8 repression” value in [6] was “did not cause any repression of either HOX gene; also recorded: not in cells expressing the F51D; also recorded: unable to deacetylate and repress target genes”. In addition, the “H3 acetylation at HOXA9” value in [7] was “not in cells expressing the F51D; also recorded: unable to deacetylate”. The “CyP33 binding to HOXC8” value in series [8] was “variably reduced CyP33 binding; also recorded: only partially disrupted in its ability to bind to HOXA9 and HOXC8”.

In turn, “H3K4me3 peptide with a single Ala added at the N terminus” gave a Kd in series [1] of 26 µM.

Turning to “CyP33: cyclophilin with N-terminal RRM and C-terminal PPIase domain; FLAG-HA-tagged in 293T experiments”, the “HOXA9 repression” value in [4] is listed as “reduced”. In series [5], the “CyP33 binding to HOXA9” value was “bound to HOXA9 and HOXC8”. Further, the “HOXC8 repression” value in series [6] is listed as “reduced”. The “repression of HOXC8 locus” value in [13] is given as “repressor of the HOXC8 locus”. In series [8], the “CyP33 binding to HOXC8” value is “bound to HOXA9 and HOXC8”.

The molecule “H3K4me3 peptide with an Ala-Ala-Ala tripeptide added at the N terminus” gave a Kd in series [1] of 64 µM.

Turning to “H3(1-15)K4me1 peptide (from UniProt P68431 2-16)”, in series [1], the Kd worked out at 53 µM.

“H3(1-15)K4me2 peptide (from UniProt P68431 2-16)”: the Kd in series [1] stood at 6.9 µM; in series [2] it was 15.2 µM.

Consider “H4(7-17)K12ac: acetylated histone H4 peptide”, for which the “complexation shifts, Bromo alone” value in series [9] is on record as “did not observe any complexation shifts”. Further, the “complexation shifts, PHD3-Bromo cassette” value in [10] is listed as “did not observe any complexation shifts”.

Regarding `C[C@H](N)C(=O)N[C@@H](C)C(=O)N[C@@H](C)C(=O)N[C@@H](C)C(=O)N[C@@H](CCCNC(=N)N)C(=O)N[C@H](C(=O)N[C@@H](CCCC[N+](C)(C)C)C(=O)N[C@@H](CCC(N)=O)C(=O)N[C@H](C(=O)N[C@@H](C)C(=O)N[C@@H](CCCNC(=N)N)C(=O)N[C@@H](CCCCN)C(=O)N[C@@H](CO)C(=O)N[C@H](C(=O)NCC(=O)NCC(=O)N[C@@H](CCCCN)C(=O)N[C@@H](C)C(=O)O)[C@@H](C)O)[C@@H](C)O)[C@@H](C)O` [Ala-Ala-Ala tri-peptide], the “increase of dissociation constant on N-terminal extension” value in series [11] is on record as 15 fold.

B1: CyP33 RRM: RRM domain (1–82) of CyP33 (protein)
chain: T2 sequence (looked up)
Consider B1, for which the “complex formation with PHD3 alone” value in [14] was “formed a complex with the PHD3 domain alone”. In addition, the “His1628-Pro1629 peptide bond configuration change” value in series [15] is “transits from cis-to-trans configuration upon interaction with CyP33 RRM”. Further, the “Pro1629 Cγ chemical shift upon addition” value in series [15] (major cross peak 25.3 ppm (cis) in free state) is reported as 27.5 ppm. The “complex formation with PHD3-Bromo cassette” value in [3] (gel filtration) is on record as “not with the PHD3-Bromo cassette”. In addition, the “Trp1594 indole resonance shift on sequential addition” value in series [16] is recorded as “upfield shift”. Besides, the “complex formation with MLL1 PHD3 M1606D” value in series [17] is reported as “completely disrupted its complex formation with CyP33 RRM”. For the same molecule, the “binding to MLL2 PHD3” value in series [18] is recorded as “does not bind CyP33 RRM”. Also, the RNA preference result in series [19] is given as “some preference for AU-rich RNAs”. For the same molecule, in series [20], the “binding to MLL2 PHD3 D1375M” value is given as “converted MLL2 PHD3 to a CyP33 RRM binding partner”. The “interaction with PHD3-Bromo P1629A” value in [21] is recorded as “interacted with a PHD3-Bromo mutant”.

As for ARTK(Me3)QTARKSTGGKA (peptide, UniProt P68431 2-16, looked up) [H3(1-15)K4me3 peptide], the binding result in series [22] and in series [23] was “binds” throughout.

B2: MLL1 (1566–1639) (domain or fragment, human, UniProt Q03164 1566-1639, looked up)
chain: GNFCPLCDKCYDDDDYESKMMQCGKCDRWVHSKCENLSDEMYEILSNLPESVAYTCVNCTERHPAEWRLALEKE
B2: the binding result in [24] is reported as “binds”.

Take MMQCGKCDRWVHSKCENLSDEMYEILSNLPESVAYTCVNCTERH (domain or fragment, human, UniProt Q03164 1585-1628, looked up) [interacting segment of MLL1 PHD3 (1585–1628)]: the binding result in series [25] is on record as “binds”.
